PMC6697747

Experiments:
[1] = confocal, β1-integrin co-internalisation with NRP1, HT29; settings: glycan lost; control: NRP1-WT
[2] = confocal, surface delivery; 24 h transient or serum-free; settings: glycan lost; control: NRP1-WT
[3] = confocal, EEA1/Rab7 co-localisation, 10% FBS medium; settings: glycan lost; control: NRP1-WT
[4] = confocal, Met co-internalisation with NRP1, HT29; settings: glycan lost; control: NRP1-WT
[5] = confocal, HGF-stimulated endocytosis after serum starvation; settings: glycan lost; control: NRP1-WT
[6] = cycloheximide chase, western blot; settings: glycan lost; control: NRP1-WT
[7] = confocal, HT29 NRP1-WT cells, 24 h treatment; settings: control: DMSO

Row | Substance | localisation_or_trafficking [1] | localisation_or_trafficking [2] | localisation_or_trafficking [3] | localisation_or_trafficking [4] | localisation_or_trafficking [5] | degradation_or_half_life [6] | localisation_or_trafficking ([7]; glycan changed form) | localisation_or_trafficking ([7]; glycan lost)
1 | Neuropilin-1 (NRP1): N150Q | increases | no change | changes | increases | increases | increases | – | –
2 | Neuropilin-1 (NRP1): N150Q/N261Q | – | – | changes | – | – | increases | – | –
3 | Neuropilin-1 (NRP1): N261Q | increases | no change | changes | increases | increases | increases | – | –
4 | Neuropilin-1 (NRP1): N300Q | – | – | no change | – | no change | no change | – | –
5 | Neuropilin-1 (NRP1): N522Q | – | – | no change | – | no change | no change | – | –
6 | Neuropilin-1 (NRP1): N842Q | – | – | no change | – | no change | no change | – | –
7 | Neuropilin-1 (NRP1): S612A | – | – | no change | – | no change | no change | – | –
8 | Neuropilin-1 (NRP1): swainsonine | – | – | – | – | – | – | changes | –
9 | Neuropilin-1 (NRP1): tunicamycin | – | – | – | – | – | – | – | changes
